Series [1] relates to S. bicolor HPPD. Put plainly: ON/OFF rate ratio insensitivity parameters of HPPD with maize motif substitutions. It is filed as biochemical, Sorghum bicolor. Particulars: sorghum HPPD. The method, then: (§1) [formula] Higher KD (reduced affinity or increased insensitivity) can be attained with a numerically smaller ON rate, a larger OFF rate or both. […] The ratio of the reaction rate with inhibitor to that without inhibitor during the 70 to 90 second interval of the reaction was termed the “ON rate ratio”. […] Incubations with the same concentrations of enzyme but no mesotrione were done in parallel. After 1 hr at room temperature, 5 to 10 ul of the enzyme-inhibitor complex was dispensed into the wells of the assay plate. Reactions were started with the addition of 290 to 295 ul of 25 mM Hepes, pH 7, 2 mM ascorbate, 10 uM FeSO4, 100 uM HPP and 50 nM HGD. The reactions were monitored at 320 nm for 12 min. Reaction velocity accelerates as inhibitor is released from the enzyme until a steady state is reached, during which the reaction velocity is constant. The ratio of the steady state rate in mixtures containing mesotrione (or other herbicidal inhibitor) to the initial velocity of mixtures lacking inhibitor is termed the “OFF rate ratio”. Another parameter to record is the time span required for the reactions with inhibitor to reach the steady state. […] It is not certain that the steady state attained in the OFF rate reactions actually represents an equilibrium where OFF rates are now equal to ON rates. Because substrate and inhibitors bind in the same site, the high concentration of substrate present may competitively trap the inhibitor and prevent it from binding again. To be sure that improvement in ON rates is being taken into account, the ON and OFF rate ratios were multiplied together and the product is termed the “insensitivity parameter”.

The subject of series [2] is S. bicolor HPPD. Put plainly: HPPD activity, coupled assay with HGD; substrate saturation kinetics. It is filed as biochemical, Sorghum bicolor. Particulars: sorghum HPPD, wt and improved. The method, then: (§2) HPPD activity was measured by placing an aliquot (e.g., 6 ul) of the substrate HPP at 50-fold the desired final concentration into the wells of a low UV-absorbing assay plate. Reactions were started by adding a mixture (e.g., 294 ul) containing 25 mM Hepes, pH 7, 2 mM ascorbate, 10 uM FeSO4, 1 to 100 uM HPP, 50 nM HGD and 5 to 240 nM HPPD. Absorbance at 320 nm was monitored continuously in a plate-reading spectrophotometer (Spectramax, Molecular Devices).
(§3) The catalytic performance of wild-type HPPD and variants generated by shuffling was assessed by determining the substrate saturation parameters. The Michaelis-Menten kinetics protocol of the Spectramax software was customized for HPP concentrations ranging from 3.33 uM to 100 uM, or up to 1 mM if required. Reaction rates were measured as described above for each concentration of HPP. The software returns values of KM and Vmax using the Lineweaver-Burke transformation of the Michaelis-Menten equation.
(§4) The amino acid substitutions identified during the shuffling and mutagenesis of the maize HPPD gene can be made at analogous positions in other HPPD proteins to improve their insensitivity toward HPPD-inhibiting herbicides. The sequences of native and improved maize HPPD were aligned with those of sorghum (Genbank accession number XP002453359) and soybean (Genbank accession number ABQ96868), and the motif substitutions were designed accordingly, as shown in FIG. 14. The genes designed for improvement were synthesized commercially, inserted into vector pVER7062 and expressed, purified and evaluated as in Example 1.

The subject of another series is soybean HPPD. Briefly: HPPD activity, coupled assay with HGD; substrate saturation kinetics (KM, kcat). It counts as biochemical.
Text: HPPD catalyzes the conversion of 4-hydroxyphenylpyruvate (HPP) to homogentisate. See, FIG. 1. […] However, the product of the ensuing reaction in tyrosine metabolism, maleylacetoacetate, absorbs strongly at 320 nm. Furthermore, the enzyme catalyzing that reaction is also a dioxygenase having similar mechanism and buffer requirements as HPPD, making homogentisate dioxygenase (HGD) an ideal partner in a coupled assay, as shown.
The HDG gene from Pseudomonas aeruginosa (Amaya (2004) Arch Biochem Biophys 421, 135-142) was cloned into pVER7062 and electroporated into E. coli strain BL21(DE3). The enzyme was produced by methods similar to those described for HPPD. The purified enzyme has a KM for homogentisate of 23 uM and a kcat of 100/sec, properties highly suited for instantly converting the homogentisate produced by HPPD to maleylacetoacetate.
as §2, §3, §4

The test system of another series is G. max HPPD. Briefly: ON/OFF rate ratio insensitivity parameters of HPPD with maize motif substitutions. It is filed as biochemical, Glycine max. Particulars: for OFF ratio / ON ratio / ON × OFF Value / ON × OFF Fold vs wt: soy HPPD. The method, then:
as §1

Where [3] appears, read: substrate HPP, E. coli-expressed enzyme.

What is called Km is the substrate concentration at which the rate is half of its maximum.

Residue numbers refer to the chain shown, from its start.

B1: SEQ ID NO: 394 (protein)
chain: MPPTPTTAAATGAAVAAASAEQAAFRLVGHRNFVRVNPRSDRFHTLAFHHVELWCADAASAAGRFSFGLGAPLAARSDLSTGNTAHASLLLRSGALAFLFTAPYAHGADAATASLPSFSAAEARRFAADHGLAVRAVALRVADAEDAFRASVAAGARPAFEPVELGLGFRLAEVELYGDVVLRYVSYPDDADASFLPGFVGVTSPGAADYGLRRFDHIVGNVPELAPAAAYFAGFTGFHEFAEFTAEDVGTTESGLNSMVLANNAENVLLPLNEPVHGTKRRSQIQTYLDHHGGPGVQHMALASDDVLRTLREMQARSAMGGFEFMAPPAPEYYDGVRRRAGDVLTEAQIKECQELGVLVDRDDQGVLLQIFTKPVGDRPTLFLEIIQRIGCMEKDEKGQEYQKGGCGGFGKGNFSQLFKSIEDYEKSLEAKQAAAAQGS
modifications: Sorghum bicolor
With B1, in the series on S. bicolor HPPD [1] (Mesotrione), the OFF ratio is 0.199, the ON ratio was determined as 0.227 and the “ON × OFF Value” was determined as 0.045. Besides, in the series on S. bicolor HPPD [1] (Tembotrione), the OFF ratio is 0.032, the ON ratio was determined as 0.210 and the “ON × OFF Value” stood at 0.0067. In the series with S. bicolor HPPD [2], the Km is 4.9 µM and the kcat amounted to 246.

B2: GE010083 (protein)
chain: B1 chain with F232M, V260A, M300I, M326L, A327P, A330L, P331S, R340C, L359M, S416G
modifications: HPPD variant
For the molecule B2, in the series on S. bicolor HPPD [1] (Mesotrione), the OFF ratio was found to be 0.436, the ON ratio is 0.634, the “ON × OFF Fold vs wt” value is 6.13 and the “ON × OFF Value” worked out at 0.277. For the same molecule, in the series with S. bicolor HPPD [1] (Tembotrione), the OFF ratio is 0.071, the ON ratio is on record as 0.730, the “ON × OFF Fold vs wt” value was found to be 7.71 and the “ON × OFF Value” came to 0.0517. For the same molecule, in the series on S. bicolor HPPD [2], the Km was 5.35 µM and the kcat is 87.

B3: Soy wt: wild-type soybean HPPD protein, SEQ ID NO: 2, expressed in E. coli (protein)
chain: MAIPMCNEIQAQAQAQAQAQPGFKLVGFKNFVRTNPKSDRFQVNRFHHIEFWCTDATNASRRFSWGLGMPIVAKSDLSTGNQIHASYLLRSGDLSFLFSAPYSPSLSAGSSAASSASIPSFDAATCLAFAAKHGFGVRAIALEVADAEAAFSASVAKGAEPASPPVLVDDRTGFAEVRLYGDVVLRYVSYKDAAPQAPHADPSRWFLPGFEAAASSSSFPELDYGIRRLDHAVGNVPELAPAVRYLKGFSGFHEFAEFTAEDVGTSESGLNSVVLANNSETVLLPLNEPVYGTKRKSQIETYLEHNEGAGVQHLALVTHDIFTTLREMRKRSFLGGFEFMPSPPPTYYANLHNRAADVLTVDQIKQCEELGILVDRDDQGTLLQIFTKPVGDRPTIFIEIIQRIGCMVEDEEGKVYQKGACGGFGKGNFSELFKSIEEYEKTLEAKRTA
modifications: Glycine max
Take B3: in the series with soybean HPPD (setting [3]), the Km is 3 µM and the kcat was determined as 100 min⁻¹.

B4: SEQ ID NO: 2 (protein)
chain: B3 chain
modifications: Glycine max
With B4, in the series with G. max HPPD (Mesotrione), the OFF ratio stood at 0.135, the ON ratio was 0.299 and the “ON × OFF Value” is recorded as 0.040. Also, in the series with G. max HPPD (Tembotrione), the OFF ratio was found to be 0.044, the ON ratio amounted to 0.102 and the “ON × OFF Value” is reported as 0.0044. Moreover, in the series on soybean HPPD (soy HPPD, wt and improved), the Km worked out at 2 µM and the kcat is reported as 83.

B5: GE010082: Glycine max variant HPPD with maize motif substitutions, SEQ ID NO: 458 (protein)
chain: MPIPMCNEIQAQAQAQAQAQPGFKLVGFKNFVRTNPKSDRFQVNRFHHIEFWCTDATNASRRFSWGLGMPIVAKSDLSTGNQIHASYLLRSGDLSFLFSAPYSPSLSAGSSAASSASIPSFDAATCLAFAAKHGFGVRAIALEVADAEAAFSASVAKGAEPASPPVLVDDRTGFAEVRLYGDVVLRYVSYKDAAPQAPHADPSRWFLPGFEAAASSSSFPELDYGIRRLDHAVGNVPELAPAVAYMAGFSGFHEFAEFTAEDVGTSESGLNSMALANNSETVLLPLNEPVYGTKRKSQIETYLEHNEGAGVQHLALVTHDIFTTLREMRKRSFLGGFEFMPSPPPTYYANLHNCAADVLTVDQIKQCEELGIMVDRDDQGTLLQIFTKPVGDRPTIFIEIIQRIGCMVEDEEGKVYQKGACGGFGKGNFGELFKSIEEYEKTLEAKRTAGLTVNS
modifications: HPPD variant
Regarding B5, in the series with G. max HPPD (Mesotrione), the OFF ratio is 0.219, the ON ratio is reported as 0.444, the “ON × OFF Fold vs wt” value is given as 2.41 and the “ON × OFF Value” is reported as 0.097. Besides, in the series on G. max HPPD (Tembotrione), the OFF ratio is listed as 0.070, the ON ratio is 0.321, the “ON × OFF Fold vs wt” value was 5.10 and the “ON × OFF Value” was found to be 0.0224. Moreover, in the series with G. max HPPD (mesotrione), the “improvement of insensitivity vs native protein” value was found to be 2.41 fold. Moreover, in the series on G. max HPPD (tembotrione), the “improvement of insensitivity vs native protein” value is given as 5.10 fold. In the series on soybean HPPD (soy HPPD, wt and improved), the Km stood at 14 µM and the kcat was determined as 13.

These data come from patent publication US9187762B2, “Compositions and methods comprising sequences having hydroxyphenylpyruvate dioxygenase (HPPD) activity” (PIONEER HI-BRED INTERNATIONAL, INC., priority 2010, dated 2015).
